In the RNAGym collection of RNA variant scans (doi:10.7554/elife.90254):

B1: LINE1-full (parent)
chain: UACGUAGGUGGUUUUCCCCUGAUAGUGCUAAGGGGGCCUGGAAGUUUGGACUGGGCAGAGCUCAACACAGCGUGGCAAAGUGGCUGUGGCUAGACUGCCUCUCUGGAUUCCUCGUCACUCAGCAGGGCAUCUCUGAGAGAAAUGCC

Variants of: B1
Experiment: self-cleavage, relative activity (ratio to wild type); higher = more cleavage; in vitro, sequencing; the parent is a self-cleaving ribozyme

Variant	self-cleavage
UACGUAGGUGGUUUUCACCUGAUAGUGCUAAGGGGGCCUGGGAGUUUGGACUGGGCAGAGCUCAACACAGCGUGGCAAAGUGGCUGUGGCUAGACUGCCUCUCUGGAUUCCUCGUCACUCAGCAGGGCAUCUCUGAGAGAAAUGCC	1.13
UACGUAGGUGGUUUACCCCUGAUAGUGCUAAGGGGGCCUGGAAGUUUGGACUGGGCAGAGCUCAACACAGCGUGGCAGAGUGGCUGUGGCUAGACUGCCUCUCUGGAUUCCUCGUCACUCAGCAGGGCAUCUCUGAGAGAAAUGCC	0.99
UACGUAGGUGGUUUUCCCCUGAUAGUGCUAAGGGGGCCUGGAAGCUUGGACUGGGCAGAGCUCAACACAGCGUGGCAAAGUGGCUGUGGCUAGACUGCCUCUCUGUAUUCCUCGUCACUCAGCAGGGCAUCUCUGAGAGAAAUGCC	1.17
UACGUAGGUGGUUUUCCCCUGAUAGUGCUAAGGGGGCCUGGAAGUUUGGACUGGGCAGAACUCAACACAGCGUGGCAAAGUGGCUGUGGCUAGACUGCCUCCCUGGAUUCCUCGUCACUCAGCAGGGCAUCUCUGAGAGAAAUGCC	0.01
UACGUAGGUGGGUUUCCCCUGAUAGUGCUAAGGGGGCCCGGAAGUUUGGACUGGGCAGAGCUCAACACAGCGUGGCAAAGUGGCUGUGGCUAGACUGCCUCUCUGGAUUCCUCGUCACUCAGCAGGGCAUCUCUGAGAGAAAUGCC	1.61
UACGUAGGUGGUUUACCCCUGAUAGUGCUAAGGGGGCCUGGAAGGUUGGACUGGGCAGAGCUCAACACAGCGUGGCAAAGUGGCUGUGGCUAGACUGCCUCUCUGGAUUCCUCGUCACUCAGCAGGGCAUCUCUGAGAGAAAUGCC	0.73
UACGUAGGUGGUUUUCCCCUGAUAGUGCUAAGGGGGCCUGGAAGUUUGGACUGGGCAGAGCUCAACACAGCGUGGCAUAGUGGCUGUGGCUAGACUGCCUCUCUGGAUUCCUCGUCACUCAGCAGGGCAUCUCUGAGUGAAAUGCC	2.15
UACGUAGGUGGUUUUCCCCUGAUGGUGCUAAGGGAGCCUGGAAGUUUGGACUGGGCAGAGCUCAACACAGCGUGGCAAAGUGGCUGUGGCUAGACUGCCUCUCUGGAUUCCUCGUCACUCAGCAGGGCAUCUCUGAGAGAAAUGCC	0.69
UACGUAGGUGGUUUUCCCUUGAUAGUGCUAAGGGGGCCUGGAAGUUUGGACUGGGCAGAGCUCAACACAGCGUGGCAAAGUGGCUGUGGCUAGGCUGCCUCUCUGGAUUCCUCGUCACUCAGCAGGGCAUCUCUGAGAGAAAUGCC	0.29
UACGUAGGUGGUUUUCCCCUGAUAGUGCUAAGGGGGCCUGGAAGUUUGGACUGGGCAGAGCUCAACACAGCGUGGCAAAGUGGCUGUGGCUAGAAUGCCUCUCUGGAUUCCUCGUCACUCAGCAGGGCAUCUCUGAGAGAAGUGCC	0.08
UACGUAGGUGGUUUUCCCCUGAUAGCGCUAAGGGGGCCUGGAAGUUUGGACUGGGCAGAGCUCAACACAGCGUGGCAAAGUGGCUGUGGCUAGACUGCCUCUCUGGAUUCCUCGUCACUCAGCAGGGCAUCUCUGAGAGUAAUGCC	0.59
UACGUAGGUGGUUUUCCCCUGAUAGUGCUAAGGGGGCCUGGAAGUUUGGACUGGGCAGAGCUCAGCACAGCGUGGCAAAGUGGCUGUGGCUAGACUGCCUCUCUGGAUUCCUCGUCACGCAGCAGGGCAUCUCUGAGAGAAAUGCC	0
UACGUAGGUGGUUUUCCCCUGAUAGUGCUAAGGGGGCCUGGAAGUUUGGACUGGGCAGAGCUCAACACAGCGUGGCAAAGUGGCUGUGGCUAGACUGCCUCUCUGGAUUCCUCGUCACUCAGCAGGGCAUCUCUGAGAGAAACGCC	1.18
UACGUAGGUGGUUUUCCCCCGAUAGUGCUAAGGGGGCCUGGAAGUUUGGACUGGGCAGAGCUCAACACAGCGUGGCAAAGUGGCUGUGGCUAGACUGCCUCUCUGGAUUCCUCGUCACUCAGCAGGGCAUCUCUGAGGGAAAUGCC	1.55
UACGUAGGUGGUUUUCCCCUGAUAGUGCUAAGGGGGCCUGGAAGUUUGGACUGGGCAGAGCUCAACACAGCGUGGCAAAGUGGCUGUGGCUAGACUGCCUCUCUGGAUUCCUCGUCACUCGGCAGGGCUUCUCUGAGAGAAAUGCC	1.59
UACGUAGGUGGUUUUCCCCUGAUAGUGCUAAGGGGGCCUGGAAGUUUGGACUGGGCAGAGCUCAACACAGCGUGGCAAAGUGGCUGUGGCUAGACUGCCUUUCUGGAUUCCUCGUCACUCAGCAGGGCAUCUCUGAGGGAAAUGCC	1.69
UACGUAGGUGGUUUUCCCCUGAUAGUGCUAAGGGGGCCUGGAAGUUUGGACUGGGCAGAGCUCAUCACAGCGUGGCAAAGUGGCUGUGGCUAGACUGCCUCUCUGGAUUCCUCGUCACUCAGCAGGGCAUCUCUGAGAGUAAUGCC	0.1
UACGUUGGUGGUUUUCCCCUGAUAGUGCUAAGGGGGCCUGGAUGUUUGGACUGGGCAGAGCUCAACACAGCGUGGCAAAGUGGCUGUGGCUAGACUGCCUCUCUGGAUUCCUCGUCACUCAGCAGGGCAUCUCUGAGAGAAAUGCC	0.89
UACGUAGGUGGUUUUCCCCUGAUAGUGCUAAGGGGGCCUGGAAGUUUGGACUGGGCAGAGCUCAACACAGCGUGGCAAAGUGGCUGUGGCUAGACUGCCUCUCUGGAUUCCUCGUCACUCAGCGUGGCAUCUCUGAGAGAAAUGCC	1.27
UACGUAGGUGGUUUUCCCCUGAUAGUGCUAAGGGGGCCUGGAAGUUUGGACUGGGCCGAGCUCAACACAGCGUGGCAAAGUGGCUGUGGCUAGACUGCCUCUCAGGAUUCCUCGUCACUCAGCAGGGCAUCUCUGAGAGAAAUGCC	0.18

Variant	self-cleavage
UACGUAGGUGGUUUGCCCCUGAUAGUGCUAAGGGGGCCUGGAGGUUUGGACUGGGCAGAGCUCAACACAGCGUGGCAAAGUGGCUGUGGCUAGACUGCCUCUCUGGAUUCCUCGUCACUCAGCAGGGCAUCUCUGAGAGAAAUGCC	0.5
UACGUAGGUGGUUUUCCCCUGAUAGUGCUAAGGGGGCCUGGAAGUUUGGACUGGGCAGAGCUCAACACAGCGUGGCAAAGUGGCUGUGGCUAGACUGCCUCACUGGAUUCCUCGUCACCCAGCAGGGCAUCUCUGAGAGAAAUGCC	2.01
UACGUAGGUGGUUUCCCCCUGAUAGUGCUAAGGGGGCCUGGAAGUUUGGACUGGGCAGAGCUCAACACAGCGUGGCAAAGUGGCUGUGGCUAGACUGCCUCUCUGGAUUCCUCGUCACUCAGCAGGGCAUCUCUGAGGGAAAUGCC	1.49
UACGUAGGUGGUUUUCCCCUGAUAGUGCUAAGGGGGCCUGGUAGUUUGGACUGGGCAGAGCUCAACACAGCGUGGCAAAGUGGCUGUGGCUAGACUGCCUCCCUGGAUUCCUCGUCACUCAGCAGGGCAUCUCUGAGAGAAAUGCC	0.89
UACGUAGGUGGUUUUCCCCUGAUAGUGCUAAGGGGGCCUGGAAGUUUGGACUGGGCAGAGCUCAACACAGCGUGGCAAAGUGGCUGUGGCUAGACUGCCUCUCUGGAUUCCUCGUCUCUCAGCAGGGCAUCUCUUAGAGAAAUGCC	1.68
UACGUAGGCGGUUUUCCCCUGAUAGUGCUAAGGGGGCUUGGAAGUUUGGACUGGGCAGAGCUCAACACAGCGUGGCAAAGUGGCUGUGGCUAGACUGCCUCUCUGGAUUCCUCGUCACUCAGCAGGGCAUCUCUGAGAGAAAUGCC	1.29
UACGUAGGUGGUUUUCCCCUGAUAGUGCUAAGGGGGCCUGGAAGAUUGGACUGGGCAGAGCUCAACACAGCGUGGCAAAGUGGCUGUGGCUAGACUGCCUCUCCGGAUUCCUCGUCACUCAGCAGGGCAUCUCUGAGAGAAAUGCC	1.77
UACGUAGGUGGUUUUCCCCUGGUAGUGCUAAGGGGGCCUGGAAGUUUGGAAUGGGCAGAGCUCAACACAGCGUGGCAAAGUGGCUGUGGCUAGACUGCCUCUCUGGAUUCCUCGUCACUCAGCAGGGCAUCUCUGAGAGAAAUGCC	0.4
UACGUAGGUGGUUUUCCCCUGAUAGUGCUAAGGAGGCCUGGAAGUUUGGACUGGGCAGGGCUCAACACAGCGUGGCAAAGUGGCUGUGGCUAGACUGCCUCUCUGGAUUCCUCGUCACUCAGCAGGGCAUCUCUGAGAGAAAUGCC	0.07
UACGUAGGUGGUUUUCCCCUGAUAGUGCUAAGGGGGCCUGGAAGUUUGGACUGGGCGGAGCUCAACACAGCGUGGCAAAGAGGCUGUGGCUAGACUGCCUCUCUGGAUUCCUCGUCACUCAGCAGGGCAUCUCUGAGAGAAAUGCC	1.16
UACGUAGGUGGUUUUCCCCUGAUAGUGCUAAGGGGGCCUGGAAGUUUGGACUGGGCAGAGCUCAACACAGCGUGGCAAAGUGGCUGUGGCCAGACUGCCUCUCUGGAUUCCUCGGCACUCAGCAGGGCAUCUCUGAGAGAAAUGCC	0.69
UACGUAGGUGGUUUUCCCCUGAUAGUGCUAAGGGGGCCUGGAAGUAUGGACUGGGCAGAGCUCAACACAGCGUGGCAAAGUGGCUGUGGCUAGACUGCCUCUCUGGAUUCCUCGUCACUCAGCUGGGCAUCUCUGAGAGAAAUGCC	1.11
UACGUAGGUGGUUUUCCCCUGAUAGUGCUAAGGGGGCCUGGAAGUUGGGACUGGGCAGAGCUCAACACAGCGUGGCAAAGUGGCUGUGGCUAGACUGCCUCUCUGGAUUCCUCGUCACUCAGCAGGGCAUCUCUGAGAGAAAUGCA	1.22
UACGUAGGUGGUUUUCCCCUGAUAGUGCUAAGGGGGCCUGGAAGUUUGGACUGGGCAGAGCUCAACACAGCGUGGCAAAGUGGCUGUGGCCAGACUGCCUCUCUGGAUACCUCGUCACUCAGCAGGGCAUCUCUGAGAGAAAUGCC	0.48
UACGUAGGUGGUUUUCCCCUGAUAGUGCUAAGGGGGCCUGGAAGUUUGGACUGGGCAGAGCUCAACACAGCGUGGCAAAGUGGCUGUGGCUAGACUGCCUCUCUGGAUUCCUCGUCUCUCAGCAGGGCAUCUCCGAGAGAAAUGCC	1.52
CACGUAGGUGGUUUUCCCCUGAUAGUGCUAAGGGGGCCUGGAAGUUUGGACUGGGCAGAGCUCAACACAGCGUGGCAAAGUGGCUGUGGCUAGACUGCCUCUCUGGAUUCCUCGUCACUCAGCAGGGCAUCUCUGAGAGAAAUACC	0.72
UACGUAGGUGGUUUUCCCCUGAUAGUGCUAAGGGGGCCUGGAAGUUUGGACUGGGCAGAGCUCAACACGGCGUGGCAAAGUGGCUGUGGCUAGACUGCCUCUCUGGAUUCCUCGUCACUCAGCAGGGCAUCUCUGAGAGAAAUGUC	0.55
UACGUAGGUGGUUUUCCCCUGAUAGUGCUAGGGGGGCCUGGAAGUUUGGACUGGGCAGAGCUCUACACAGCGUGGCAAAGUGGCUGUGGCUAGACUGCCUCUCUGGAUUCCUCGUCACUCAGCAGGGCAUCUCUGAGAGAAAUGCC	0.48
UACGUAGGCGGUUUUCCCCUGAUAGUACUAAGGGGGCCUGGAAGUUUGGACUGGGCAGAGCUCAACACAGCGUGGCAAAGUGGCUGUGGCUAGACUGCCUCUCUGGAUUCCUCGUCACUCAGCAGGGCAUCUCUGAGAGAAAUGCC	1.16
